Target: FLAG-TEV recognition sequence-granzyme B AA21-240 fusion whose recognition site (SEQ ID NO: 6) has a G instead of Q, P10144
Sequence (P10144 whole entry, looked up, the tested form may be a part): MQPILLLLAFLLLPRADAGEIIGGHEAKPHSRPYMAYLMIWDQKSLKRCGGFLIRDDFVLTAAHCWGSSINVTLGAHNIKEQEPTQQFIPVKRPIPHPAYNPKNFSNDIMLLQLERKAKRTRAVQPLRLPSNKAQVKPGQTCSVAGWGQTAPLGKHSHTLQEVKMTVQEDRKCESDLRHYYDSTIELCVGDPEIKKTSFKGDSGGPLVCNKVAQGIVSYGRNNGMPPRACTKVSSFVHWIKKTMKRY

B1: tobacco etch virus protease with N-terminal FLAG sequence (product of plasmid pSTdna 1023) (protein)
chain: MDYKDDDDKGDYKDDDDKGGGTGESLFKGPRDYNPISSTICHLTNESDGHTTSLYGIGFGPFIITNKHLFRRNNGTLLVQSLHGVFKVKNTTTLQQHLIDGRDMIIIRMPKDFPPFPQKLKFREPQREERICLVTTNFQTKSMSSMVSDTSCTFPSSDGIFWKHWIQTKDGQCGSPLVSTRDGFIVGIHSASNFTNTNNYFTSVPKNFMELLTNQEAQQWVSGWRLNADSVLWGGHKVFMSKPEEPFQPVKEATQLMNELVYSQ
cleavage by TEV: no cleavage by TEV takes place (not shown)

— US20190105378
